Columns and labels:
ubiquitin [1] = target: T1, ubiquitin (UniProt P0CG48 1-76); assay: ITC
ubiquitin [2] = target: T1, ubiquitin; assay: NMR titration

Kd (ubiquitin [1]) | binding result (ubiquitin [2]) | Binder
18.7 ± 1.6 µM | – | REV1 UBM1-UBM2 (C958S C977A) (domain or fragment, human, UniProt Q9UBZ9-1 933-1040, looked up) PSPSQLDQSVLEALPPDLREQVEQVSAVQQAESHGDKKKEPVNGANTGILPQPVGTVLLQIPEPQESNSDAGINLIALPAFSQVDPEVFAALPAELQRELKAAYDQRQ
– | binds | REV1 UBM1-UBM2 (residues 933-1040, wild-type) (domain or fragment, human, UniProt Q9UBZ9-1 933-1040, looked up) PSPSQLDQSVLEALPPDLREQVEQVCAVQQAESHGDKKKEPVNGCNTGILPQPVGTVLLQIPEPQESNSDAGINLIALPAFSQVDPEVFAALPAELQRELKAAYDQRQ
14.9 ± 3 µM | – | ESNSDAGINLIALPAFSQVDPEVFAALPAELQRELKAAYDQRQ (domain or fragment, human, UniProt Q9UBZ9-1 998-1040, looked up) [REV1 UBM2 (residues E998 to Q1040)]

From paper PMC8589032 (Journal of molecular biology, 2018)
